# Measurements as given in PMC7721647, “The Human RNA Helicase DDX21 Presents a Dimerization Interface Necessary for Helicase Activity” (iScience, 2020).
# T1: DDX21ΔN (human, UniProt Q9NR30 186-783)
# T1 sequence: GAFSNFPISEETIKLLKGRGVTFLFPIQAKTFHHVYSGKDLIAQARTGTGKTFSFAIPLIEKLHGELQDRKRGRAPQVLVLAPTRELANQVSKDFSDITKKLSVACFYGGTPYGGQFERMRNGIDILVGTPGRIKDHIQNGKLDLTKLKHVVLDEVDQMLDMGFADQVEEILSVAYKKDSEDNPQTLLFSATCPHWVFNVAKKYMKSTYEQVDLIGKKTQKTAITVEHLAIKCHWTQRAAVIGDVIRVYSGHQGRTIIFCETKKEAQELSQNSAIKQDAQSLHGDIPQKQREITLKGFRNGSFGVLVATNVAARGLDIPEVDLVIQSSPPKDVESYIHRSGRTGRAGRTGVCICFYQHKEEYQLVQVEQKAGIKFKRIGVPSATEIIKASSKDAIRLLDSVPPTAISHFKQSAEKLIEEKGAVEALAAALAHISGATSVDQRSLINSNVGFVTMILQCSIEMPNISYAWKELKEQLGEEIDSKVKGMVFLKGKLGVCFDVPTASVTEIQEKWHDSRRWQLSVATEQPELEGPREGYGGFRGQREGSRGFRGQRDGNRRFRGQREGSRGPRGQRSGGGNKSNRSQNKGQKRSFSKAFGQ
# T2: DDX21Core (human, UniProt Q9NR30 186-564)
# T2 sequence: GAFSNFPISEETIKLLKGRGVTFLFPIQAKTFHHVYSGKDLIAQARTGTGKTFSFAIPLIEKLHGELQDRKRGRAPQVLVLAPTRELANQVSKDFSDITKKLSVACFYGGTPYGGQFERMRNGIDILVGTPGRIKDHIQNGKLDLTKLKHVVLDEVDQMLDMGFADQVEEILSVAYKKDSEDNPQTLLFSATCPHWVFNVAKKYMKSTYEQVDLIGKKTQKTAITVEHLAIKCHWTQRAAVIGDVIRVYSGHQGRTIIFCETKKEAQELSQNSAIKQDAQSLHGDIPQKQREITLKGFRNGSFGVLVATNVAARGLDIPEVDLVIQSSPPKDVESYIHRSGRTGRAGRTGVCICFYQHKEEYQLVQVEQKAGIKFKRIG
# T3: DDX21Fl (human, UniProt Q9NR30 1-783)
# T3 sequence: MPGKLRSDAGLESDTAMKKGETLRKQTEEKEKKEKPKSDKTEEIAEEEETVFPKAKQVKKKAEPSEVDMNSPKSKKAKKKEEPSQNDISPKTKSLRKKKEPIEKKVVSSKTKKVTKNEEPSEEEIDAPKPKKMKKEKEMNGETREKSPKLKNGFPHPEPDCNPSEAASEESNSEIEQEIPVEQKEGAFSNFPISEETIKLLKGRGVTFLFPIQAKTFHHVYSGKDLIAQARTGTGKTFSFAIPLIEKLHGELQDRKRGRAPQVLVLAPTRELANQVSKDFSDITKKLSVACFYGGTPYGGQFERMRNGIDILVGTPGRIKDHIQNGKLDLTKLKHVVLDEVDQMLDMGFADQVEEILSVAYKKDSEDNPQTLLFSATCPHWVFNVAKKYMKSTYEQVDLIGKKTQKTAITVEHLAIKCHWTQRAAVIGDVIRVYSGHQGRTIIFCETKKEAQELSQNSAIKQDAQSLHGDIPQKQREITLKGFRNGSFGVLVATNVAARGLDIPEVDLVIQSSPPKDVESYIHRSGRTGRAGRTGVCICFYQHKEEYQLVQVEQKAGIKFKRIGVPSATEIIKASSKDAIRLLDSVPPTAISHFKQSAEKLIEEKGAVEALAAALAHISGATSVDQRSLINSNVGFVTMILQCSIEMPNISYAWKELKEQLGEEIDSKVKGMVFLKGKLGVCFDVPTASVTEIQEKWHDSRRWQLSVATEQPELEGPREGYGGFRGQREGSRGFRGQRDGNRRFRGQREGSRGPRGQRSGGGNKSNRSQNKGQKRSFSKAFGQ
# B1: dsRNA 15/30mer 3' overhang (dsRNA)
# RNA 1: GUUUCGGAUCGACGC
# RNA 2: GCGUCGAUCCGAAACUAUACUUAAUUUUAA
# Legend:
# [1] = molecular target: T1, DDX21ΔN; assay: fluorescence polarization; 50 mM KCl; FP: 50 mM Tris pH 7.5, 50 mM KCl, 5 mM MgCl2, no ATP; Hill-slope fit; temperature not given in the material; conditions: protein: recombinant; chain copies: 2; label: 5'-FAM; G4
# [2] = molecular target: T2, DDX21Core; assay: as above; conditions: protein: recombinant; label: 5'-FAM; G4
# [3] = molecular target: T1, DDX21ΔN; assay: fluorescence polarization; FP: 50 mM Tris pH 7.5, 50 mM KCl, 5 mM MgCl2, no ATP; Hill-slope fit; temperature not given in the material; conditions: protein: recombinant, chain copies: 2
# [4] = molecular target: T2, DDX21Core; assay: as above; conditions: protein: recombinant
# [5] = molecular target: T3, DDX21Fl; assay: fluorescence polarization; no ATP; FP: 50 mM Tris pH 7.5, 50 mM KCl, 5 mM MgCl2, no ATP; Hill-slope fit; temperature not given in the material; conditions: protein: recombinant, tags: N-terminal Trx-His6, cut with thrombin, chain copies: 2
# [6] = label: 5'-FAM on 15-mer, 3' overhang 15 nt
binder,measurement,setting,value
GUUGGGGCGGGCGUUGGGUUUGGGGGGACG (structured_RNA) [Q2 RNA G-quadruplex],Kd,[1],7.6 ± 0.5 nM
same,Kd,[2],62.5 ± 4.9 nM
GUUUCGGAUCGACGC (ssRNA) [15-mer ssRNA],Kd,"[3]; label: 5'-FAM, single strand",40.3 ± 2.6 nM
same,Kd,"[4]; label: 5'-FAM, single strand",1520 ± 112 nM
same,Kd,"[5]; label: 5'-FAM, single strand",30.7 ± 2.8 nM
B1,Kd,[3]; [6],15.5 ± 0.8 nM
same,Kd,[4]; [6],353 ± 27.9 nM
same,Kd,[5]; [6],10.2 ± 0.4 nM
